Values of other authors in paper PMC7652413.
pKd: −log10 of the molar value.

Molecular target: SARS-CoV-2 spike protein RBD (Severe acute respiratory syndrome coronavirus 2) (UniProt P0DTC2)
Test: SPR

## CD147 (basigin) (from UniProt P35613)
  pKd: 6.73
